Values quoted from earlier work, collected in PMC11381654.

Target: IL-4Rα (Homo sapiens) (UniProt P24394)

Kd: 0.033 nM
Substance: dupilumab
